Source: article PMC5389710 (Nucleic Acids Research, 2016)

Key:
Test in all cases: ITC
[1] = molecular target: Xenopus laevis core histone H2B (X. laevis, UniProt P02281 1-126)
[2] = molecular target: Xenopus laevis core histone H3 (X. laevis, UniProt P84233 1-136)
[3] = molecular target: Chicken erythrocyte H3–H4 histone dimer (chicken, UniProt P84229 1-136; P62801 1-103)

Kd [1]: 9.6 µM
Kd [2]: 20 µM
Kd [3]: 0.4 µM
B1: Arabidopsis thaliana NAP1-related protein 1 (NRP1) (natural protein)
chain: MVADKSKKSKIEEKGEEENLEQIDAELVLSIEKLQEIQDDLEKINEKASDEVLEVEQKYNVIRKPVYDKRNEVIQSIPGFWMTAFLSHPALGDLLTEEDQKIFKYLNSLEVEDAKDVKSGYSITFHFTSNPFFEDAKLTKTFTFLEEGTTKITATPIKWKEGKGLPNGVNHDDKKGNKRALPEESFFTWFTDAQHKEDAGDEIHDEVADIIKEDLWSNPLTYFNNDADEEDFDGDDDGDEEGEEDDDDEEEEDGEE
